Assay [1] has as its target T1, human serum albumin (human, UniProt P02768 25-609).
T1 construct: also called HSA
Nature of the assay: SPR (summary table), affinity to HSA at pH 5.5.
Description: (§1) The binding to human serum albumin (HSA) and cynomolgus serum albumin (CSA) was assessed for purified trispecific molecules by running SPR spectroscopy on a MASS-1 device (Sierra Sensors). HSA was directly immobilized on a high capacity amine sensor chip (Sierra Sensors) and trispecific molecules were injected as analyte using a dose response multicycle kinetic assay with concentrations of the analyte ranging from 0.35 to 90 nM diluted either in running buffer at pH5.5 or pH7.5. Obtained sensorgrams were fitted using the 1:1 binding model. Affinity to CSA was assessed in a similar approach using a CSA immobilized sensor chip.

Assay [2] addresses T2, human TNFα (human, UniProt P01375 77-233).
T2 construct: Biotinylated in the Biacore assay
Nature of the assay: SPR (summary table), affinity to human TNF.
Description: (§2) In this experiment, the biotinylated antigens were captured using the Biotin-CAPture kit from Biacore. After each analyte injection cycle the CAP sensor chip was regenerated and new antigen was captured. Trispecific molecules were injected as analyte using a dose response multicycle kinetic assay with concentrations of the analyte ranging from 0.35 to 90 nM diluted in running buffer. Obtained sensorgrams were fitted using the 1:1 binding model.

Assay [3] deals with T3, human IL-17A (human, UniProt Q16552 24-155, limits assumed). Nature of the assay: cell-based or functional assay.
Assay [4] concerns the target T2, human TNFα. Nature of the assay: cell-based or functional assay.
Assay [5] addresses T3, human IL-17A. Nature of the assay: competitive ELISA, blocking of IL-17A/IL-17RA interaction (summary table). (ELISA stands for enzyme-linked immunosorbent assay.)
Description: (§3) Finally, Tetramethylbenzidine solution was added to develop the plate for 5 to 10 minutes and the reaction was stopped with 1 M HCl. The plate was read at 450 nm and 570 nm (reference wavelength).
Assay [6] concerns the target T1, human serum albumin. Nature of the assay: SPR (MASS-1), HSA immobilised, trispecific as analyte, pH 7.4.
Description: as §1
For assay [7], the target named is T3, human IL-17A. Nature of the assay: SPR (summary table), affinity to human IL-17, capture setup.
Description: as §2
Assay [8] deals with T1, human serum albumin. Nature of the assay: SPR (MASS-1), HSA immobilised, trispecific as analyte, pH 5.5.
Description: as §1
Assay [9] has as its target T4, cynomolgus serum albumin (cynomolgus monkey, UniProt A2V9Z4 25-608).
T4 construct: also called CSA
Nature of the assay: SPR (MASS-1), CSA immobilised, trispecific as analyte, pH 5.5.
Description: as §1

In assay [10] the target is T3, human IL-17A. Nature of the assay: competitive ELISA: IL-17RA coated, biotinylated IL-17A preincubated with trispecific molecule.
Description: as §3
Assay [11] concerns the target T3, human IL-17A. Nature of the assay: cell-based or functional assay. This is another data set of the same source.
The target in assay [12] is T3, human IL-17A. Nature of the assay: competitive ELISA: biotinylated human IL-17A preincubated with the trispecific molecule, then binding to coated IL-17RA detected (blocked ligand: IL-17RA) [left panel].
For assay [13], the target named is T3, human IL-17A. Nature of the assay: SPR (Biacore T200), biotinylated antigen captured (Biotin-CAPture), trispecific as analyte.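 Also: multicycle dose-response kinetics, analyte at 0.35–90 nM in running buffer, CAP chip regenerated with fresh antigen each cycle, sensorgrams fitted to a 1:1 binding model.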 On the technique in general: SPR reads the build-up and loss of mass on a sensor chip optically.
Description: as §2
In assay [14] the target is T2, human TNFα. The description is as above.
Description: as §2
The next assay addresses T5, cynomolgus monkey IL-17A (Macaca fascicularis (cynomolgus monkey)).
T5 construct: also called cyno IL-17A; cyno IL17A
Described as above.

Assay [15] deals with T4, cynomolgus serum albumin. Nature of the assay: SPR (MASS-1), CSA immobilised, trispecific as analyte, pH 7.4.
Description: as §1
For assay [16], the target named is T2, human TNFα. Nature of the assay: cell-based or functional assay. This is another data set of the same source.
Assay [17] concerns the target T3, human IL-17A. Nature of the assay: SPR (MASS-1), trispecific immobilised, antigens injected sequentially.
Description: (§4) All possible sequences of antigen injection were tested resulting in six possible sequences.
(§5) To evaluate concomitant binding of each antigen to trispecific molecules, the binding level relative to the theoretical Rmax was calculated for each injection using the respective ligand and analyte molecular masses and the immobilization level of the trispecific molecules. The average of the maximum binding relative to theoretical Rmax for each antigen was obtained by averaging individual maximum binding relative to theoretical Rmax obtained for the two injections where the respective antigen was injected as first analyte (in the absence of other bound antigens). Next, the binding relative to the theoretical Rmax of each analyte injection was compared to its average maximum binding to calculate the fraction binding obtained in the presence of other bound antigens. […] The binding levels relative to the theoretical Rmax and the average of maximum binding (binding levels in the absence of other antigens) of each antigen were calculated.
Assay [18] concerns the target T1, human serum albumin. The description is as above.
Description: as §4, §5
The target in assay [19] is T2, human TNFα. Described as above.
Description: as §4, §5
Assay [20] addresses T3, human IL-17A. Nature of the assay: competitive ELISA: biotinylated human IL-17A preincubated with the trispecific molecule, then binding to coated IL-17RA detected (blocked ligand: IL-17RA) [right panel].
Assay [21] deals with T1, human serum albumin. Nature of the assay: SPR (MASS-1), trispecific immobilised, HSA injected as last analyte.
Description: as §4, §5
Assay [22] addresses T2, human TNFα. Nature of the assay: cell-based or functional assay. This is another data set of the same source.

Broadly, the Kd is the free concentration of one partner at which half of the binding sites on the other are occupied at equilibrium, for simple one-to-one binding. As usually defined, the koff is a measure of how fast the partners let go of each other. The kon is a measure of how fast the partners come together.

Description for cynomolgus monkey IL-17A: as §2

B1: A5 (trispecific tribody, Fab-(scFv)2) (other)
light: DIQMTQSPSSLSASVGDRVTINCQASESISSWLAWYQQKPGKRPKLLIYKASTLASGVPSRFSGSGSGTDYTLTISSLQPEDFATYYCQGYYLDSSVDDNVFGGGTKLTVLGRTRTVAAPSVFIFPPSDEQLKSGTASVVCLLNNFYPREAKVQWKVDNALQSGNSQESVTEQDSKDSTYSLSSTLTLSKADYEKHKVYACEVTHQGLSSPVTKSFNRGECGGGGSGGGGSDIQMTQSPSSLSASVGDRVTITCQSSESVYSNNQLSWYQQKPGQPPKLLIYDASDLASGVPSRFSGSGSGTDFTLTISSLQPEDFATYYCAGGFSSSSDTAFGGGTKLTVLGGGGGSGGGGSGGGGSGGGGSEVQLVESGGGLVQPGGSLRLSCAASGFSLSSNAMGWVRQAPGKGLEYIGIISVGGFTYYASWAKGRFTISRDNSKNTVYLQMNSLRAEDTATYFCARDRHGGDSSGAFYLWGQGTLVTVSS
heavy: EVQLVESGGGLVQPGGSLRLSCAASGIDFSTYGISWVRQAPGKGLEWIAYIYPDYGITDYASWVNGRFTISLDNAQNTVYLQMNSLRAEDTAVYYCARSGSYYSRGWGAHYFNLWGQGTLVTVSSASTKGPSVFPLAPSSKSTSGGTAALGCLVKDYFPEPVTVSWNSGALTSGVHTFPAVLQSSGLYSLSSVVTVPSSSLGTQTYICNVNHKPSNTKVDKKVEPKSCGGGGSGGGGSDIQMTQSPSSLSASVGDRVTITCQASQTINYWLAWYQQKPGKAPKLLIYRASTLASGVPSRFSGSGSGTDFTLTISSLQPEDFATYYCQNYYYSTSRSYGFGGGTKLTVLGGGGGSGGGGSGGGGSGGGGSEVQLVESGGGLVQPGGSLRLSCAASGFSFSSDYWMCWVRQAPGKGLEWIGCIYAGDVDDTDYASWARGRFTISRDNSKNTVYLQMNSLRAEDTAVYYCARVDGFDITYFDLWGQGTLVTVSS
notes: Trispecific tribody
As for B1, the Kd was 1.66 nM in the assay with human serum albumin [1]; 0.1 nM with human TNFα [2]; 2.69 nM with human serum albumin [6]; 0.575 nM with human IL-17A [7]; 1.66 nM with human serum albumin [8]; 0.795 nM with cynomolgus serum albumin [9]. Further, the Kd with human IL-17A [13] is 0.575 nM; with human TNFα [14], 0.1 nM; in the assay with cynomolgus monkey IL-17A it was 0.523 nM; with cynomolgus serum albumin [15], 2.47 nM. Further, in the assay with human IL-17A [3], the “rel. IC50 to secukinumab (ng/ml) in HT-29 assay, +HSA” value worked out at 63. Also, the “rel. IC50 to secukinumab (ng/ml) in HT-29 assay, -HSA” value in the assay with human IL-17A [3] came out at 88.9. The “rel. IC50 to A13 (nM) in HT-29 assay, -HSA” value with human TNFα [4] came to 2.4. Moreover, the “rel. IC50 (IC50, secukinumab/IC50, test sample, ng/ml)” value in the assay with human IL-17A [5] was 4.9. Moreover, the “rel. IC50 to secukinumab (IC50, secukinumab/IC50, test sample, ng/ml)” value with human IL-17A [10] was found to be 4.9. For the same molecule, in the assay with human IL-17A [11], the “potency to neutralize IL-17A compared to A7” value is ~2 fold. Also, the “IC50 (read off the curve)” value with human IL-17A [12] was ~4 ng/mL. In addition, the “IC50 in L929 assay, cell viability” value in the assay with human TNFα [16] came to 0.02 nM. Further, in the assay with human TNFα [16], the “rel. IC50 in L929 assay (IC50, A13/IC50, test sample, nM)” value was 0.9.

B2: A8 (trispecific scDb-scFv) (other)
chain: DIQMTQSPSSLSASVGDRVTITCQSSESVYSNNQLSWYQQKPGQPPKLLIYDASDLASGVPSRFSGSGSGTDFTLTISSLQPEDFATYYCAGGFSSSSDTAFGGGTKLTVLGGGGGSEVQLVESGGGLVQPGGSLRLSCAASGIDFSTYGISWVRQAPGKGLEWIAYIYPDYGITDYASWVNGRFTISLDNAQNTVYLQMNSLRAEDTAVYYCARSGSYYSRGWGAHYFNLWGQGTLVTVSSGGGGSGGGGSGGGGSGGGGSDIQMTQSPSSLSASVGDRVTINCQASESISSWLAWYQQKPGKRPKLLIYKASTLASGVPSRFSGSGSGTDYTLTISSLQPEDFATYYCQGYYLDSSVDDNVFGGGTKLTVLGGGGGSEVQLVESGGGLVQPGGSLRLSCAASGFSLSSNAMGWVRQAPGKGLEYIGIISVGGFTYYASWAKGRFTISRDNSKNTVYLQMNSLRAEDTATYFCARDRHGGDSSGAFYLWGQGTLVTVSSGGGGSGGGGSDIQMTQSPSSLSASVGDRVTITCQASQTINYWLAWYQQKPGKAPKLLIYRASTLASGVPSRFSGSGSGTDFTLTISSLQPEDFATYYCQNYYYSTSRSYGFGGGTKLTVLGGGGGSGGGGSGGGGSGGGGSEVQLVESGGGLVQPGGSLRLSCAASGFSFSSDYWMCWVRQAPGKGLEWIGCIYAGDVDDTDYASWARGRFTISRDNSKNTVYLQMNSLRAEDTAVYYCARVDGFDITYFDLWGQGTLVTVSS
notes: Single chain
For B2, the “antigen binding relative to average maximum binding” value with human IL-17A [17], with human serum albumin [18] and in the assay with human TNFα [19] was ≥ 70% throughout. The Kd was found to be 0.799 nM in the assay with human serum albumin [1]; 0.185 nM in the assay with human TNFα [2]; 1.42 nM in the assay with human serum albumin [6]; 0.483 nM with human IL-17A [7]; 0.799 nM with human serum albumin [8]; 0.483 nM with human IL-17A [13]. This molecule also gave a Kd with human TNFα [14] of 0.185 nM. Besides, the “rel. IC50 to secukinumab (ng/ml) in HT-29 assay, +HSA” value with human IL-17A [3] came out at 304. In addition, the “rel. IC50 to secukinumab (ng/ml) in HT-29 assay, -HSA” value in the assay with human IL-17A [3] was 44.1. Besides, the “rel. IC50 to A13 (nM) in HT-29 assay, +HSA” value in the assay with human TNFα [4] was found to be 4.6. In the assay with human TNFα [4], the “rel. IC50 to A13 (nM) in HT-29 assay, -HSA” value amounted to 3.9. For the same molecule, in the assay with human IL-17A [5], the “rel. IC50 (IC50, secukinumab/IC50, test sample, ng/ml)” value came out at 10.2. Also, the “IC50 (read off the curve)” value with human IL-17A [20] is ~5 ng/mL. The koff was 0.00044 s⁻¹ with human serum albumin [6], 0.000375 s⁻¹ with human serum albumin [8], 8.36e-05 s⁻¹ with human IL-17A [13] and 4.06e-05 s⁻¹ with human TNFα [14]. In addition, the kon turned out to be 310000 M⁻¹ s⁻¹ with human serum albumin [6], 469000 M⁻¹ s⁻¹ with human serum albumin [8], 173000 M⁻¹ s⁻¹ with human IL-17A [13] and 219000 M⁻¹ s⁻¹ with human TNFα [14]. Also, in the assay with human serum albumin [21], the “relative binding level compared to average maximum binding” value was ~70%. In the assay with human IL-17A [10], the “rel. IC50 to secukinumab (IC50, secukinumab/IC50, test sample, ng/ml)” value amounted to 10.2. For the same molecule, the “potency to neutralize TNFα compared to A7” value with human TNFα [22] is ~2 fold. Further, in the assay with human TNFα [16], the “IC50 in L929 assay, cell viability” value came out at 0.03 nM. Also, in the assay with human TNFα [16], the “rel. IC50 in L929 assay (IC50, A13/IC50, test sample, nM)” value was found to be 0.4.

Source of the values: patent publication US20220127350A1 (NUMAB THERAPEUTICS, published 2022).
